Measured values from US20110015124A1 (TEMPLE UNIVERSITY OF THE COMMOMWEALTH SYSTEM OF HIGHER …, published 2011).
Starred links: 1 amine or outer side, 2 acyl side, 3 side chain; linkers in the order of their positions; H or OH if unused. Non-standard residues stand in square brackets, D forms with d. Primed or numbered codes have the meaning given here. No end group written: not given here. Tyr(Me)″ = methylated tyrosine, COc1ccc(C[C@H](N[*:1])C(=O)[*:2])cc1; Tyr(3,5-I2) = N[C@@H](Cc1cc(I)c(O)c(I)c1)C(=O)O; dGla = N[C@H](CC(C(=O)O)C(=O)O)C(=O)O; Dap = NC[C@H](N)C(=O)O; βAla = NCCC(=O)O

T1: human IgG Fc-conjugated ObR extracellular domain (R&D Systems) (human, UniProt P48357 22-839)
T1 construct: extracellular domain; it was detected with an antibody specific for the N-terminus of human ObR; also called ObR extracellular fragment-human Fc chimera; extracellular domain of ObR; not shown: human IgG Fc
T1 sequence (looked up): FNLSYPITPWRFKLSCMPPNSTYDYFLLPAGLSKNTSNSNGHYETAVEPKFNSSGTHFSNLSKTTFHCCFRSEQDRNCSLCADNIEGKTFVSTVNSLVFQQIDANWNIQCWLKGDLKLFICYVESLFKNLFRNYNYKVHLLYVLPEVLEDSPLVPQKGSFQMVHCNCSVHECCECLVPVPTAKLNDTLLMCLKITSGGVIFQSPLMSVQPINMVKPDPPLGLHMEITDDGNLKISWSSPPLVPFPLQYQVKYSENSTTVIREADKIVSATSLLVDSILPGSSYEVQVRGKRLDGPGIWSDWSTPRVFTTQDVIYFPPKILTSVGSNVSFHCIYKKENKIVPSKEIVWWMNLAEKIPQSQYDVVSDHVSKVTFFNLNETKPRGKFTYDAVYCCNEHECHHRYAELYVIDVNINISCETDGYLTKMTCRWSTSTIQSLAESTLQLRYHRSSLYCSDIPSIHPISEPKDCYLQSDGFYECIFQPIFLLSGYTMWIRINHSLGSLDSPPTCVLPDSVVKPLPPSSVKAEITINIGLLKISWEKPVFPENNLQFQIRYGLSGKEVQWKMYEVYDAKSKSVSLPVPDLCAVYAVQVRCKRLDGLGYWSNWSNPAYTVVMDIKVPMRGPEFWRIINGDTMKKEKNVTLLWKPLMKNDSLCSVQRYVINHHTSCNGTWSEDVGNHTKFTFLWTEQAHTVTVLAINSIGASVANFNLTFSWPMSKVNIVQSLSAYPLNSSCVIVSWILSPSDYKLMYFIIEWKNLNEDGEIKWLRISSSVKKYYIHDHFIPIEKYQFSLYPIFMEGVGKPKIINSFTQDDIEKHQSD

T2: leptin receptor (ObR) naturally expressed on MCF-7 and DU-45 cells (human, UniProt P48357 22-1165)
T2 sequence (looked up): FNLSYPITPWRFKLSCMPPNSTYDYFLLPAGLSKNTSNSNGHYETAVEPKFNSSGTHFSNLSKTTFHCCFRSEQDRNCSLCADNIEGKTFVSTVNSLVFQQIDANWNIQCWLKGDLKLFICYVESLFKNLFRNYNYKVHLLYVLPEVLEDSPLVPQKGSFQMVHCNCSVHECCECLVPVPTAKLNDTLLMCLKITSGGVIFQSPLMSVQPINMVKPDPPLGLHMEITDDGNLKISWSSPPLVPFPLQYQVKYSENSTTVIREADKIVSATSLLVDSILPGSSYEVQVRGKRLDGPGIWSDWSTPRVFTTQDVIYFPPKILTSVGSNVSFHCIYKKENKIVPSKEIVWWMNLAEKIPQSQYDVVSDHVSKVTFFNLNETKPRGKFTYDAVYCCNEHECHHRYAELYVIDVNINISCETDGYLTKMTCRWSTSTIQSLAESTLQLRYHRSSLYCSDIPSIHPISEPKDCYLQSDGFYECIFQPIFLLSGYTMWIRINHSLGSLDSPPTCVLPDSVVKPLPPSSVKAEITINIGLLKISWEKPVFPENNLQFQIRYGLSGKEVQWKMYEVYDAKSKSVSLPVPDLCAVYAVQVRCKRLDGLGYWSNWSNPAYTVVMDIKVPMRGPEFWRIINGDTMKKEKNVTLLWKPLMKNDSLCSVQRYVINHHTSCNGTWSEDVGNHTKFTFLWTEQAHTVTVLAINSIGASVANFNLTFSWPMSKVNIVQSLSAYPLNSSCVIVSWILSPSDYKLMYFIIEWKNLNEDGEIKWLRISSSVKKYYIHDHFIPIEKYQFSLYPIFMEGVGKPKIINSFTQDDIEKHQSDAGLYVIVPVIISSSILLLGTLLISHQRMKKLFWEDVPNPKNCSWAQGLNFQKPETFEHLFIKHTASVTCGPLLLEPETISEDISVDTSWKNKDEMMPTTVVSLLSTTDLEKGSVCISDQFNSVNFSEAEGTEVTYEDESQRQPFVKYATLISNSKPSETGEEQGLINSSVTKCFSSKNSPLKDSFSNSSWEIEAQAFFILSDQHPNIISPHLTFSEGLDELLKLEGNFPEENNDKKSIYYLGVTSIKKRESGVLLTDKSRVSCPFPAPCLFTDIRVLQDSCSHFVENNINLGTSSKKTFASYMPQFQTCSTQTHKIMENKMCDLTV


Tests used:
[1] = biological target: leptin receptor (ObR) naturally expressed on MCF-7 and DU-45 cells (human) (UniProt P48357); assay: cell-based or functional assay
[2] = biological target: T1, human IgG Fc-conjugated ObR …; assay: ELISA-type solid-phase binding assay, peptide on plate, ObR-Fc in solution
Description: For dot-blot and ELISA assays, the leptin fragments were dissolved in electroblot transfer buffer (25 mM Tris and […] buffer containing 20% methanol) and were applied to either a nitrocellulose membrane or dried upon ELISA plates (Otvos, L., Jr., and Szendrei, G. I. (1996) Enzyme-linked immunosorbent assay of peptides. In: Neuropeptide Protocols (G. B. Irvine and C. H. Williams, eds.). Humana Press, Totowa, N.J., pp. 269-275). The solid surfaces were blocked with 5% BSA in a PBS-0.5% Tween 20 buffer (PBST) for 3 hours at room temperature and were subsequently incubated with 10 μg/mL solution of human IgG Fc-conjugated ObR extracellular domain (R&D Systems) dissolved in Tris-buffered saline-0.1% Tween 20 buffer (TBST) containing 1% bovine serum albumin (BSA) for 1 hour. A monoclonal goat antibody (Santa Cruz Biotechnology), specific for the N-terminus of human ObR, was added to the assay mixture, followed by addition of a horseradish peroxidase(HRP)-conjugated anti-goat IgG donkey antibody for the dot-blot assay, and HRP-conjugated anti-goat Fc mouse antibody for ELISA assay (used at a 1:15,000 dilution in PBST and 1% BSA). Between reagents, the solid surfaces were washed extensively with PBST. After washing with PBST, the membrane was treated with a chemiluminescence luminol oxidizer (NEN) for 1 min. […] Optical absorbance values were read at 490 nm using a microplate reader. […]

[3] = biological target: T2, leptin receptor (ObR) naturally …; assay: cell-based or functional assay
[4] = biological target: T2, leptin receptor (ObR) naturally …; assay: cell-based or functional assay; remark: listed apart in the source

Molecule | Relative stimulation (%) of MCF-7 cells, with 10 nM leptin [3] | other results
human leptin (R&D Systems) (from UniProt P41159 22-167) |  | MCF-7 cell growth (cell count, 5 days) [1]: 40%
VDKGSYLPRPTPPRPIYNRN (peptide, UniProt P37362 1-20, looked up, Negative control peptide; also called negative control antibacterial peptide pyrrhocoricin) [pyrrhocoricin] |  | binding result [2]: no binding
G[Tyr(3,5-I2)]ST[dGla]VV[dA]LSRL-NH2 (N-terminus assumed; SMILES CC(C)C[C@H](NC(=O)[C@H](CCCNC(=N)N)NC(=O)[C@H](CO)NC(=O)[C@H](CC(C)C)NC(=O)[C@@H](C)NC(=O)[C@@H](NC(=O)[C@@H](NC(=O)[C@@H](CC(C(=O)O)C(=O)O)NC(=O)[C@@H](NC(=O)[C@H](CO)NC(=O)[C@H](Cc1cc(I)c(O)c(I)c1)NC(=O)CN)[C@@H](C)O)C(C)C)C(C)C)C(N)=O) [F2 peptide] | -15% | 
[Tyr(Me)″]STEVV[βAla]LSRL-NH2 (N-terminus assumed; SMILES COc1ccc(C[C@H](N)C(=O)N[C@@H](CO)C(=O)N[C@H](C(=O)N[C@@H](CCC(=O)O)C(=O)N[C@H](C(=O)N[C@H](C(=O)NCCC(=O)N[C@@H](CC(C)C)C(=O)N[C@@H](CO)C(=O)N[C@@H](CCCNC(=N)N)C(=O)N[C@@H](CC(C)C)C(N)=O)C(C)C)C(C)C)[C@@H](C)O)cc1) [A11 peptide] | -3% | 
[Tyr(3,5-I2)]S(β‑D‑glucose)TEVVALSRL[Dap](Ac)-NH2 [E1Free glycopeptide] |  | EC50 estimated from ERK1/2 stimulation in MCF-7 cells [4]: 100 to 150 nM

Further lines, with some results ahead:

Relative stimulation (%) of MCF-7 cells, with 10 nM leptin [3] | Molecule | other results
-10% | G[Tyr(3,5-I2)]STEVV[βAla]LSRL-NH2 (N-terminus assumed; SMILES CC(C)C[C@H](NC(=O)[C@H](CCCNC(=N)N)NC(=O)[C@H](CO)NC(=O)[C@H](CC(C)C)NC(=O)CCNC(=O)[C@@H](NC(=O)[C@@H](NC(=O)[C@H](CCC(=O)O)NC(=O)[C@@H](NC(=O)[C@H](CO)NC(=O)[C@H](Cc1cc(I)c(O)c(I)c1)NC(=O)CN)[C@@H](C)O)C(C)C)C(C)C)C(N)=O) [A4 peptide] | 
-43% | [Tyr(Me)″]ST[dGla]VV[dA]LSRL-NH2 (N-terminus assumed; SMILES COc1ccc(C[C@H](N)C(=O)N[C@@H](CO)C(=O)N[C@H](C(=O)N[C@H](CC(C(=O)O)C(=O)O)C(=O)N[C@H](C(=O)N[C@H](C(=O)N[C@H](C)C(=O)N[C@@H](CC(C)C)C(=O)N[C@@H](CO)C(=O)N[C@@H](CCCNC(=N)N)C(=O)N[C@@H](CC(C)C)C(N)=O)C(C)C)C(C)C)[C@@H](C)O)cc1) [D12 peptide] | 
